According to US20060257938A1, “Method of screening for drugs that block ligand binding to a lipid binding protein” (priority 2005, published 2006):
Several values for one entry are separate records, joined by “and”; a condition that tells them apart may be missing. Equal values may be shown once.

B1: 60N, 72A (protein, listed as Rattus norvegicus)
chain: AFDGTWKVDRNENYEKFMEKMGINVVKRKLGAHDNLKLTITQEGNKFTVKESSNFRNIDNVFELGVDFAYSAADGTELTGTWTMEGNKLVGKFKRVDNGKELIAVREISGNELIQTYTYEGVEAKRIFKKE
modifications: PEPTIDE (1)...(131) wild-type rat intestinal fatty acid binding protein
B2: 60P, 72A (protein, listed as Rattus norvegicus)
chain: AFDGTWKVDRNENYEKFMEKMGINVVKRKLGAHDNLKLTITQEGNKFTVKESSNFRNIDPVFELGVDFAYSAADGTELTGTWTMEGNKLVGKFKRVDNGKELIAVREISGNELIQTYTYEGVEAKRIFKKE
modifications: PEPTIDE (1)...(131) wild-type rat intestinal fatty acid binding protein
B3: 60Q, 72A (protein, listed as Rattus norvegicus)
chain: AFDGTWKVDRNENYEKFMEKMGINVVKRKLGAHDNLKLTITQEGNKFTVKESSNFRNIDQVFELGVDFAYSAADGTELTGTWTMEGNKLVGKFKRVDNGKELIAVREISGNELIQTYTYEGVEAKRIFKKE
modifications: PEPTIDE (1)...(131) wild-type rat intestinal fatty acid binding protein
B4: 60R, 72A (protein, listed as Rattus norvegicus)
chain: AFDGTWKVDRNENYEKFMEKMGINVVKRKLGAHDNLKLTITQEGNKFTVKESSNFRNIDRVFELGVDFAYSAADGTELTGTWTMEGNKLVGKFKRVDNGKELIAVREISGNELIQTYTYEGVEAKRIFKKE
modifications: PEPTIDE (1)...(131) wild-type rat intestinal fatty acid binding protein
B5: 60S, 72A (protein, listed as Rattus norvegicus)
chain: AFDGTWKVDRNENYEKFMEKMGINVVKRKLGAHDNLKLTITQEGNKFTVKESSNFRNIDSVFELGVDFAYSAADGTELTGTWTMEGNKLVGKFKRVDNGKELIAVREISGNELIQTYTYEGVEAKRIFKKE
modifications: PEPTIDE (1)...(131) wild-type rat intestinal fatty acid binding protein
B6: 60T, 72A (protein, listed as Rattus norvegicus)
chain: AFDGTWKVDRNENYEKFMEKMGINVVKRKLGAHDNLKLTITQEGNKFTVKESSNFRNIDTVFELGVDFAYSAADGTELTGTWTMEGNKLVGKFKRVDNGKELIAVREISGNELIQTYTYEGVEAKRIFKKE
modifications: PEPTIDE (1)...(131) wild-type rat intestinal fatty acid binding protein
B7: 60W, 72A (protein, listed as Rattus norvegicus)
chain: AFDGTWKVDRNENYEKFMEKMGINVVKRKLGAHDNLKLTITQEGNKFTVKESSNFRNIDWVFELGVDFAYSAADGTELTGTWTMEGNKLVGKFKRVDNGKELIAVREISGNELIQTYTYEGVEAKRIFKKE
modifications: PEPTIDE (1)...(131) wild-type rat intestinal fatty acid binding protein

Assays:
Type in all cases: binding
Conditions in all cases: response relative to ADIFAB2
[1] = Probe fluorescence ratio response to linolenic acid relative to ADIFAB2
Method in brief: (§1)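 Fluorescently labeled rat intestinal FABP variants were read at two emission wavelengths, near the unbound maximum (about 420 to 480 nm) and the FFA-bound maximum (about 495 to 580 nm). R = Fλ1/Fλ2 after subtracting probe-free intensity; ΔR = R+agent − R0, normalized to ADIFAB2 (rI-FABP-L72A).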

[2] = Probe fluorescence ratio response to arachidonic acid relative to ADIFAB2
Method in brief: as §1

[3] = Probe fluorescence ratio response to linoleic acid relative to ADIFAB2
Method in brief: as §1

[4] = Probe fluorescence ratio response to palmitic acid relative to ADIFAB2
Method in brief: as §1

[5] = Probe fluorescence ratio response to oleic acid relative to ADIFAB2
Method in brief: as §1

Molecule	DR/DR LNA [1]	DR/DR AA ([2]; Arachidonic acid)	DR/DR LA [3]	DR/DR PA [4]	DR/DR OA [5]	DR/DR AA ([2]; arachidonic acid)
B1	1.59	1.24	1.57	1.30	1.54	
B2	0.77	0.62	0.81	0.37	0.81	
B3	0.42	0.36	0.41	0.35	0.41	
B4	0.14	0.14	0.12	0.08	0.13	
B5	0.71	0.56	0.72	0.59	0.67	
B6	1.73	1.72	1.73	1.49	1.76	
B7	0.74 and 0.739	0.67	0.84 and 0.837	0.59 and 0.595	0.76 and 0.763	0.670
